Experimental data published in the supplement of paper PMC9732359.
± gives the uncertainty stated by the source.

Assay: protein stability index of a GFP-peptide fusion (yeast GPS) (PSI 1-4); higher = more stable; sorted into four equal gates, so the index is relative within each strain
How it was run: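 Mid-log yeast cultures in leucine-free medium, carrying a pooled plasmid library, were sorted into four equal gates by their GFP/Cherry fluorescence ratio. Each plasmid expressed Cherry along with GFP fused upstream of a tiled 17-residue yeast protein peptide. Plasmids recovered from each gate were PCR-amplified and Illumina-sequenced, with reads assigned to strains by barcodes. The protein stability index was obtained by summing each gate's read frequency weighted by its gate number.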

Sequence	protein stability index (doa10∆)	protein stability index (pdr5∆)	protein stability index (san1∆)	protein stability index (ubr1∆)
ILRQRGPGFKFVDLNEK [SRB4]	2.57 ± 0.11	1.64 ± 0.076	1.44 ± 0.21	1.75 ± 0.079
IPHIFYSLHQIRKDPNN [CSE2]	2.7 ± 0.11	2.61 ± 0.071	2.5 ± 0.058	2.67 ± 0.042
GASNGDDSNGGNGEGLG [BRN1]	3.42 ± 0.14	2.83 ± 0.23	3.68 ± 0.16	3.19 ± 0.084
EQQVAEEATTEEAGEEE [RPS0A]	2.89 ± 0.14	2.82 ± 0.24	2.6 ± 0.19	
LEPDYQAPFSTSTKDKN [MED1]	2.84 ± 0.075	3 ± 0.08	2.81 ± 0.084	3.08 ± 0.074
SPHGLINLNVDDDILII [SRB4]	3.1 ± 0.074	3.2 ± 0.075	3.11 ± 0.054	3.05 ± 0.045
ITHKLTKNDAGSKQILK [BRR2]	3.07 ± 0.071	3.43 ± 0.079	3.21 ± 0.036	3.23 ± 0.055
LEVGKNNFCALYNLSNP [RPN14]	1.58 ± 0.092	1.2 ± 0.14	1.43 ± 0.15	1.13 ± 0.046
NKNQDAFEAELSNIPLL [ARP9]	3.12 ± 0.098	3.23 ± 0.086	3.01 ± 0.084	3.31 ± 0.076
FDSLIKVQISKIPILAQ [RPN9]	2.69 ± 0.081	1.8 ± 0.056	2.59 ± 0.094	1.96 ± 0.081
FAKEKLTKKEKKEANLF [RPL6A]	3.02 ± 0.072	3.08 ± 0.08	3.19 ± 0.073	3.14 ± 0.05
YQTCKNSEYLKRRVTNL [SMC2]	2.37 ± 0.071	2.09 ± 0.079	2.44 ± 0.078	2.45 ± 0.073
SKVREEVGDVCINELDN [RPO31]	3.15 ± 0.095	2.32 ± 0.06	2.84 ± 0.075	3.18 ± 0.065
PCNNRGKHSIGLIWYLL [RPS0A]	2.56 ± 0.058	2.37 ± 0.054	2.49 ± 0.058	2.37 ± 0.044
QIKGLQWMVSLFNNHLN [SNF2]	1.79 ± 0.12	1.74 ± 0.097	1.4 ± 0.14	1.36 ± 0.058
TFDSSWNWAKQSLLSLY [FAS2]	1.47 ± 0.066	1.3 ± 0.058	2.08 ± 0.15	1.58 ± 0.073
SRKRNEEEDAKNPLFSY [RPL31A]	2.48 ± 0.078	2.91 ± 0.059	2.58 ± 0.074	2.12 ± 0.043
ILYTSKIVFILDSDSEN [RRI2]	1.76 ± 0.065	1.88 ± 0.047	1.43 ± 0.09	1.71 ± 0.037
PPEVTSSNCHVRQKIKT [POP1]	3.05 ± 0.071	3.1 ± 0.072	2.78 ± 0.073	3.01 ± 0.045
VEDYLSSVTSDSMKYTI [RPC82]	3.45 ± 0.22	3.03 ± 0.083	3.05 ± 0.14	3.04 ± 0.093
MGSLINGITLALIDAGI [SKI6]	1.89 ± 0.1	2.1 ± 0.055	2.05 ± 0.075	2 ± 0.051
MERLDGDYNNTVYSSEQ [SMC3]	2.94 ± 0.11	3.18 ± 0.12	3.25 ± 0.071	3.16 ± 0.042
KRLADGLSVTQKVFVRS [DIS3]	1.85 ± 0.077	2.38 ± 0.076	1.93 ± 0.12	1.93 ± 0.06
IFISSDHEFVLISLIMT [YMR129W/POM152]	1.3 ± 0.13	1.24 ± 0.071	2.01 ± 0.16	1.61 ± 0.29
GKYVIAGHVSGVITVHN [RPN14]	1.55 ± 0.098	2.48 ± 0.092	2.48 ± 0.1	3.23 ± 0.038
DCRMGNFYIQYDPKDGL [AAR2]	2.77 ± 0.054	2.39 ± 0.058	2.31 ± 0.08	2.61 ± 0.037
